# Molecular target: T1, FLAG-HSP90α wild type (human, UniProt P07900 1-732)
# T1 construct: HSP90α, stress-inducible cytosolic HSP90 isoform, encoded by HSP90AA1, human; The plasmid list names only pcDNA3-FLAG-HSP90α; the LUMIER methods call the protein 3XFLAG-tagged; also called HSP90α WT; 3XFLAG-HSP90α; source: HEK293, transfected, in lysate
# Test: LUMIER; HEK293 in 96-well plates co-transfected with NanoLuc-client and 3XFLAG-HSP90α or β; TGNET lysate on anti-FLAG antibody-coated plate 2 h at 4°C; NanoLuc read-out divided by anti-FLAG-HRP read-out = relative interaction strength
# Conditions: partners not purified
binder,measurement,value
"NL-RHOBTB2/DBC2 (natural protein, UniProt Q9BYZ6 1-727, looked up, E3-ubiquitin ligase RHOBTB2/DBC2; also called RHOBTB2 fused to NanoLuc luciferase; source: HEK293, transfected, in lysate; not shown: NanoLuc luciferase, N-terminal, kept) MDSDMDYERPNVETIKCVVVGDNAVGKTRLICARACNATLTQYQLLATHVPTVWAIDQYRVCQEVLERSRDVVDDVSVSLRLWDTFGDHHKDRRFAYGRSDVVVLCFSIANPNSLHHVKTMWYPEIKHFCPRAPVILVGCQLDLRYADLEAVNRARRPLARPIKPNEILPPEKGREVAKELGIPYYETSVVAQFGIKDVFDNAIRAALISRRHLQFWKSHLRNVQRPLLQAPFLPPKPPPPIIVVPDPPSSSEECPAHLLEDPLCADVILVLQERVRIFAHKIYLSTSSSKFYDLFLMDLSEGELGGPSEPGGTHPEDHQGHSDQHHHHHHHHHGRDFLLRAASFDVCESVDEAGGSGPAGLRASTSDGILRGNGTGYLPGRGRVLSSWSRAFVSIQEEMAEDPLTYKSRLMVVVKMDSSIQPGPFRAVLKYLYTGELDENERDLMHIAHIAELLEVFDLRMMVANILNNEAFMNQEITKAFHVRRTNRVKECLAKGTFSDVTFILDDGTISAHKPLLISSCDWMAAMFGGPFVESSTREVVFPYTSKSCMRAVLEYLYTGMFTSSPDLDDMKLIILANRLCLPHLVALTEQYTVTGLMEATQMMVDIDGDVLVFLELAQFHCAYQLADWCLHHICTNYNNVCRKFPRDMKAMSPENQEYFEKHRWPPVWYLKEEDHYQRARKEREKEDYLHLKRQPKRRWLFWNSPSSPSSSAASSSSPSSSSAVV","fold difference in relative interaction strength, HSP90α against HSP90β",~3 fold
